Assay results taken from US20230416330A1, “Optimized GIP Peptide Analogues” (Antag Therapeutics ApS, priority 2019, published 2023).
Starred links: 1 amine or outer side, 2 acyl side, 3 side chain; linkers in the order of their positions; H or OH if unused. Groups on a side chain read outwards from the residue. No end group written: not given here. *: point of attachment. C18 diacid = O=C(O)CCCCCCCCCCCCCCCCC(=O)*; C16 diacid = O=C(O)CCCCCCCCCCCCCCC(=O)*; γGlu = O=C(O)[C@H](CCC(=O)[*:2])N[*:1]; AEEA = NCCOCCOCC(=O)O

T1: human GIP receptor (human, UniProt P48546 22-466)
T1 sequence (looked up): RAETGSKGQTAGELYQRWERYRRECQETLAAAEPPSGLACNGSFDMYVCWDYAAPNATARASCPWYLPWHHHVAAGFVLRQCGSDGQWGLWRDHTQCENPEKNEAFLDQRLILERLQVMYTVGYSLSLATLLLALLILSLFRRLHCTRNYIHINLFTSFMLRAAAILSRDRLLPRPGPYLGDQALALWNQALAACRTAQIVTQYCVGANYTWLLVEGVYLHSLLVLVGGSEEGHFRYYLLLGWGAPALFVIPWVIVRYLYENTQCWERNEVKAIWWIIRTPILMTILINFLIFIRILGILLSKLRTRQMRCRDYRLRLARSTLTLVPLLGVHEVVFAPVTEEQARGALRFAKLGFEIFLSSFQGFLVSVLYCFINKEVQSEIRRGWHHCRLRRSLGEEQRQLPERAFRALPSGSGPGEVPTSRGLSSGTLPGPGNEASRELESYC

B1: AT364 (peptide)
peptide: EGTFISDYSIAMDKIK(C16 diacid)QQDFVNWLLAQKPSSGAPPPS-OH
modifications: N-terminus assumed
SMILES: CC[C@H](C)[C@H](NC(=O)[C@H](CO)NC(=O)[C@H](Cc1ccc(O)cc1)NC(=O)[C@H](CC(=O)O)NC(=O)[C@H](CO)NC(=O)[C@@H](NC(=O)[C@H](Cc1ccccc1)NC(=O)[C@@H](NC(=O)CNC(=O)[C@@H](N)CCC(=O)O)[C@@H](C)O)[C@@H](C)CC)C(=O)N[C@@H](C)C(=O)N[C@@H](CCSC)C(=O)N[C@@H](CC(=O)O)C(=O)N[C@@H](CCCCN)C(=O)N[C@H](C(=O)N[C@@H](CCCCNC(=O)CCCCCCCCCCCCCCC(=O)O)C(=O)N[C@@H](CCC(N)=O)C(=O)N[C@@H](CCC(N)=O)C(=O)N[C@@H](CC(=O)O)C(=O)N[C@@H](Cc1ccccc1)C(=O)N[C@H](C(=O)N[C@@H](CC(N)=O)C(=O)N[C@@H](Cc1c[nH]c2ccccc12)C(=O)N[C@@H](CC(C)C)C(=O)N[C@@H](CC(C)C)C(=O)N[C@@H](C)C(=O)N[C@@H](CCC(N)=O)C(=O)N[C@@H](CCCCN)C(=O)N1CCC[C@H]1C(=O)N[C@@H](CO)C(=O)N[C@@H](CO)C(=O)NCC(=O)N[C@@H](C)C(=O)N1CCC[C@H]1C(=O)N1CCC[C@H]1C(=O)N1CCC[C@H]1C(=O)N[C@@H](CO)C(=O)O)C(C)C)[C@@H](C)CC
B2: AT158 (peptide)
peptide: EGTFISDYSIAMDKIK(C16 diacid)QQDFVNWLLAQK-NH2
modifications: N-terminus assumed
SMILES: CC[C@H](C)[C@H](NC(=O)[C@H](CO)NC(=O)[C@H](Cc1ccc(O)cc1)NC(=O)[C@H](CC(=O)O)NC(=O)[C@H](CO)NC(=O)[C@@H](NC(=O)[C@H](Cc1ccccc1)NC(=O)[C@@H](NC(=O)CNC(=O)[C@@H](N)CCC(=O)O)[C@@H](C)O)[C@@H](C)CC)C(=O)N[C@@H](C)C(=O)N[C@@H](CCSC)C(=O)N[C@@H](CC(=O)O)C(=O)N[C@@H](CCCCN)C(=O)N[C@H](C(=O)N[C@@H](CCCCNC(=O)CCCCCCCCCCCCCCC(=O)O)C(=O)N[C@@H](CCC(N)=O)C(=O)N[C@@H](CCC(N)=O)C(=O)N[C@@H](CC(=O)O)C(=O)N[C@@H](Cc1ccccc1)C(=O)N[C@H](C(=O)N[C@@H](CC(N)=O)C(=O)N[C@@H](Cc1c[nH]c2ccccc12)C(=O)N[C@@H](CC(C)C)C(=O)N[C@@H](CC(C)C)C(=O)N[C@@H](C)C(=O)N[C@@H](CCC(N)=O)C(=O)N[C@@H](CCCCN)C(N)=O)C(C)C)[C@@H](C)CC
B3: AT437 (peptide)
peptide: SGTFISDYSIAMDKIK([AEEA-AEEA-γGlu-C18 diacid])QQDFVNWLLAQKPSSGAPPPS-OH
modifications: N-terminus assumed
SMILES: CC[C@H](C)[C@H](NC(=O)[C@H](CO)NC(=O)[C@H](Cc1ccc(O)cc1)NC(=O)[C@H](CC(=O)O)NC(=O)[C@H](CO)NC(=O)[C@@H](NC(=O)[C@H](Cc1ccccc1)NC(=O)[C@@H](NC(=O)CNC(=O)[C@@H](N)CO)[C@@H](C)O)[C@@H](C)CC)C(=O)N[C@@H](C)C(=O)N[C@@H](CCSC)C(=O)N[C@@H](CC(=O)O)C(=O)N[C@@H](CCCCN)C(=O)N[C@H](C(=O)N[C@@H](CCCCNC(=O)COCCOCCNC(=O)COCCOCCNC(=O)CC[C@H](NC(=O)CCCCCCCCCCCCCCCCC(=O)O)C(=O)O)C(=O)N[C@@H](CCC(N)=O)C(=O)N[C@@H](CCC(N)=O)C(=O)N[C@@H](CC(=O)O)C(=O)N[C@@H](Cc1ccccc1)C(=O)N[C@H](C(=O)N[C@@H](CC(N)=O)C(=O)N[C@@H](Cc1c[nH]c2ccccc12)C(=O)N[C@@H](CC(C)C)C(=O)N[C@@H](CC(C)C)C(=O)N[C@@H](C)C(=O)N[C@@H](CCC(N)=O)C(=O)N[C@@H](CCCCN)C(=O)N1CCC[C@H]1C(=O)N[C@@H](CO)C(=O)N[C@@H](CO)C(=O)NCC(=O)N[C@@H](C)C(=O)N1CCC[C@H]1C(=O)N1CCC[C@H]1C(=O)N1CCC[C@H]1C(=O)N[C@@H](CO)C(=O)O)C(C)C)[C@@H](C)CC
B4: AT482 (peptide)
peptide: EGTFISEYSIAMEKIK(C16 diacid)QQEFVQWLLAQK-NH2
modifications: N-terminus assumed
SMILES: CC[C@H](C)[C@H](NC(=O)[C@H](CO)NC(=O)[C@H](Cc1ccc(O)cc1)NC(=O)[C@H](CCC(=O)O)NC(=O)[C@H](CO)NC(=O)[C@@H](NC(=O)[C@H](Cc1ccccc1)NC(=O)[C@@H](NC(=O)CNC(=O)[C@@H](N)CCC(=O)O)[C@@H](C)O)[C@@H](C)CC)C(=O)N[C@@H](C)C(=O)N[C@@H](CCSC)C(=O)N[C@@H](CCC(=O)O)C(=O)N[C@@H](CCCCN)C(=O)N[C@H](C(=O)N[C@@H](CCCCNC(=O)CCCCCCCCCCCCCCC(=O)O)C(=O)N[C@@H](CCC(N)=O)C(=O)N[C@@H](CCC(N)=O)C(=O)N[C@@H](CCC(=O)O)C(=O)N[C@@H](Cc1ccccc1)C(=O)N[C@H](C(=O)N[C@@H](CCC(N)=O)C(=O)N[C@@H](Cc1c[nH]c2ccccc12)C(=O)N[C@@H](CC(C)C)C(=O)N[C@@H](CC(C)C)C(=O)N[C@@H](C)C(=O)N[C@@H](CCC(N)=O)C(=O)N[C@@H](CCCCN)C(N)=O)C(C)C)[C@@H](C)CC

Key:
human GIP receptor [1] = target: T1, human GIP receptor; assay: cell-based or functional assay
human GIP receptor [2] = target: T1, human GIP receptor; assay: cell-based or functional assay; remark: listed apart in the source

Row | Binder | cAMP antagonism nM (IC50, CisBio assay) (human GIP receptor [1]) [nM] | cAMP antagonism pIC50 (CisBio assay) (human GIP receptor [1]) | nM (Kb, Schild analysis, cAMP) (human GIP receptor [2]) [nM] | pKb (Schild analysis, cAMP) (human GIP receptor [2])
1 | B1 | 1.12 | 9 | 0.77 | 9.1
2 | B2 | 14.3 | 7.8 | 3.7 | 8.4
3 | B3 | 35.5 | 7.5 | – | –
4 | EGTFISDYSIAMDKIHQQDFVNWLLAQK [GIP(3-30)] | 33.8 | 7.5 | 3.5 | 8.5
5 | B4 | 14.1 | 7.9 | – | –
